Experimental data taken from the supplement of paper PMC10567573.

B1: PRKX (parent)
chain: KLLVVDRTRRLGNMKNGANDVKHH
B2: SLC2A12 (parent)
chain: TRIMIGLTLVFFVQITGQPNILFY

Variants of: B1
Assay: protein stability index of a GFP-peptide fusion (GPS, HEK-293T) (PSI 1-6); higher = more stable
Settings: c terminus: a fixed tail appended
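Note: lentivirally expressed fusions sorted by FACS into six bins by GFP to DsRed ratio, PSI derived from sequencing read proportions per bin multiplied by bin number.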

| Variant | protein stability index |
| --- | --- |
| KLLVVDRTYRLGNMKNGANDVKHH [R9Y] | 2.63 |
| KLLVVDRTERLGNMKNGANDVKHH [R9E] | 3.5 |
| KLLVVDHTRRLGNMKNGANDVKHH [R7H] | 3.03 |
| KLLVVDATRRLGNMKNGANDVKHH [R7A] | 3.79 |
| KLLVVDCTRRLGNMKNGANDVKHH [R7C] | 2.6 |
| KLLVVDYTRRLGNMKNGANDVKHH [R7Y] | 2.5 |
| KLLVVDVTRRLGNMKNGANDVKHH [R7V] | 2.81 |
| KLLVVDRTRRLGNMKNGANDCKHH [V21C] | 2.67 |
| KLLVVDRTRRLGNMKNGANDHKHH [V21H] | 3.43 |
| KLLVVDRTRRLGNMKNGANDVKMH [H23M] | 2.33 |
| KLLVVDRTRRLGNMKNGANDVKEH [H23E] | 3.44 |
| KLLVVDRTRRLGNMKNGANDVKPH [H23P] | 3.37 |
| KLLVVDRTRRLGNMKKGANDVKHH [N16K] | 3.19 |
| KLLVVDRTRRLGNMKVGANDVKHH [N16V] | 2.62 |
| KLLVVDRTRRLGNMKSGANDVKHH [N16S] | 3.27 |
| KLLIVDRTRRLGNMKNGANDVKHH [V4I] | 2.46 |
| KLLQVDRTRRLGNMKNGANDVKHH [V4Q] | 3.19 |
| KLLVVFRTRRLGNMKNGANDVKHH [D6F] | 3.18 |
| KLLVVERTRRLGNMKNGANDVKHH [D6E] | 2.94 |
| KLLVVDRTRRLGNMDNGANDVKHH [K15D] | 3.85 |
| KLLVVDRTRRLGNMCNGANDVKHH [K15C] | 2.57 |
| KLLVVDRTRRLGNMKNGANAVKHH [D20A] | 3.13 |
| KLLVVDRTRRLGNMKNGANKVKHH [D20K] | 2.55 |

| Variant | protein stability index |
| --- | --- |
| KLLVVDRTRRLGNMKNGANTVKHH [D20T] | 2.65 |
| KLLVVDRARRLGNMKNGANDVKHH [T8A] | 3.03 |
| KLLVVDRLRRLGNMKNGANDVKHH [T8L] | 2.47 |
| LLLVVDRTRRLGNMKNGANDVKHH [K1L] | 1.86 |
| WLLVVDRTRRLGNMKNGANDVKHH [K1W] | 1.55 |
| KLLVKDRTRRLGNMKNGANDVKHH [V5K] | 3.56 |
| KLLVGDRTRRLGNMKNGANDVKHH [V5G] | 3.32 |
| KLLVVDRTRRLGNMKNGAKDVKHH [N19K] | 3.6 |
| KLLVVDRTRRLGNMKNGAWDVKHH [N19W] | 2.71 |
| KLLVVDRTRRLGNMKNGAFDVKHH [N19F] | 2.32 |
| KLLVVDRTRRLGNMKNGAEDVKHH [N19E] | 3.3 |
| KLLVVDRTRRLGNMKNGANDVKHL [H24L] | 2.11 |
| KTLVVDRTRRLGNMKNGANDVKHH [L2T] | 3.61 |
| KGLVVDRTRRLGNMKNGANDVKHH [L2G] | 4.1 |
| KLLVVDRTRRLGVMKNGANDVKHH [N13V] | 3.02 |
| KLLVVDRTRRLGAMKNGANDVKHH [N13A] | 3.44 |
| KLLVVDRTRRLGRMKNGANDVKHH [N13R] | 2.75 |
| KLRVVDRTRRLGNMKNGANDVKHH [L3R] | 3.87 |
| KLLVVDRTRRMGNMKNGANDVKHH [L11M] | 2.77 |
| KLLVVDRTRRLGNMKNRANDVKHH [G17R] | 2.55 |
| KLLVVDRTRRLGNMKNPANDVKHH [G17P] | 2.63 |
| KLLVVDRTRRLGNMKNSANDVKHH [G17S] | 2.85 |
| KLLVVDRTRRLGNMKNIANDVKHH [G17I] | 2.74 |

Variants of: B2
Assay: as above
Settings: c terminus: a fixed tail appended

| Variant | protein stability index |
| --- | --- |
| TRIMIGLTLVFFVQITGQPNILFT [Y24T] | 3.56 |
| TRIMIGLTLVFFVQITGQPNILFW [Y24W] | 2.69 |
| TRIMIGLTLVFFVQITGQPNILFI [Y24I] | 3.33 |
| TRIMIGLTLVFFVQITGQPNILFQ [Y24Q] | 2.06 |
| TRIMIGLTLVFFVQITGQPNILFE [Y24E] | 3.1 |
| TRIMIGLTLVFFVQITGQPNILFM [Y24M] | 4.11 |
| TRIMIGLTLVFFVQITGQPNILFV [Y24V] | 4.22 |
| TRIMIGLTLVFFVQITGQPNILFC [Y24C] | 3.19 |
| TRIMIGLTLVFFVQITGQPNILFN [Y24N] | 2.88 |
| TRIMIGLTLVFFVQITGQPNILFH [Y24H] | 2.29 |
| TRIMIGLTLVFFVQITGQPNILFR [Y24R] | 3.44 |
| TRIMIGLTLVFFVQITGQPNILFG [Y24G] | 2.83 |
| TRIMIGLTLVFFVQITGQPNILFF [Y24F] | 5.58 |
| TRIMIGLTLVFFVQITGQPNILFP [Y24P] | 3.53 |
| TRIMIGLTLVFFVQITGQPNILFA [Y24A] | 3.48 |
| TRIMIGLTLVFFVQITGQPNILFS [Y24S] | 2.89 |
| TRIMIGLTLVFFVQITGQPNYLFY [I21Y] | 2.98 |
| TRIMIGLTLVFFVQITGQPNVLFY [I21V] | 2.5 |
| TRIMIGLTLVFFVQITGQPNSLFY [I21S] | 4.17 |
| TRIMIGLTLVFFVQITGQPNTLFY [I21T] | 3.91 |
| TRIMIGLTLVFFVQITGQPNWLFY [I21W] | 3.64 |
| TRIMIGLTLVFFVQITGQPNILVY [F23V] | 2.56 |
| TRIMIGLTLVFFVQITGQPNILIY [F23I] | 3.73 |
| TRIMIGLTLVFFVQITGQPNILLY [F23L] | 3.52 |

| Variant | protein stability index |
| --- | --- |
| TRIMIGLTLVFFVQITGQPNILHY [F23H] | 2.96 |
| TRIMIGLTLVFFVQITGQPNILDY [F23D] | 2.29 |
| TRIMIGLTLVFFVQITGQPNILPY [F23P] | 3.99 |
| TRIMIGLTLVFFVQITGQPNILYY [F23Y] | 3.75 |
| TRIMIGLTLVFFVQITGQPNILCY [F23C] | 2.54 |
| TRIMIGLTLVFFVQITGQPNILGY [F23G] | 3.83 |
| TRIMIGLTLVFFVQITGQPNILMY [F23M] | 2.94 |
| TRIMIGLTLVFFVQITGQPNILSY [F23S] | 2.97 |
| TRIMIGLTLVFFVQITGQPNILAY [F23A] | 3.26 |
| TRIMIGLTLVFFVQITGQPNILEY [F23E] | 3.67 |
| TRIMIGLTLVFFVQITGQPNILTY [F23T] | 2.38 |
| TRIMIGLTLVFFVQITGQPNILKY [F23K] | 3.29 |
| TRIMIGLTLVFFVQITGQPNIMFY [L22M] | 2.97 |
| TRIMIGLTLVFFVQITGQPNIEFY [L22E] | 3.11 |
| TRIMIGLTLVFFVQITGQPNIWFY [L22W] | 2.65 |
| TRIMIGLTLVFFVQITGQPNICFY [L22C] | 3.96 |
| TRIMIGLTLVFFVQITGQPNIIFY [L22I] | 1.48 |
| TRIMIGLTLVFFVQITGQPNIQFY [L22Q] | 1.83 |
| TRIMIGLTLVFFVQITGQPNIKFY [L22K] | 1.94 |
| TRIMIGLTLVFFVQITGQPNISFY [L22S] | 3.01 |
| TRIMIGLTLVFFVQITGQPNIHFY [L22H] | 2.65 |
| TRIMIGLTLVFFVQITGQPNIFFY [L22F] | 2.79 |
| TRIMIGLTLVFFVQITGQPNIDFY [L22D] | 3.15 |
| TRIMIGLTLVFFVQITGQPNINFY [L22N] | 3.01 |
